Target: HSV-1 cytoplasmic capsids (HSV-1, KOS strain) (UniProt P10202)
Test: co-sedimentation

Sequence of UniProt P10202 (P10202 whole entry, looked up): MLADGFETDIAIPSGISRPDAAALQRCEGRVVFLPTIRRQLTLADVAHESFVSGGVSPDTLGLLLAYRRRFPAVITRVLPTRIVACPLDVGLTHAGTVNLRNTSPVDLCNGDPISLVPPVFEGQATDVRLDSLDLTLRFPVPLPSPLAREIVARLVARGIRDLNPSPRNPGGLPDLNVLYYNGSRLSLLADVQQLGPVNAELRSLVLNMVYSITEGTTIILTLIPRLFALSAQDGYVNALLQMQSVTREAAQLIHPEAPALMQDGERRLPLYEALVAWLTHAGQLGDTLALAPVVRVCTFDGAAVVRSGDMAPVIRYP

B1: UL16 tegument protein of herpes simplex virus (natural protein)
chain: MAQLGPRRPLAPPGPPGTLPRPDSRAGARGTRDRVDDLGTDVDSIARIVNSVFVWRVVRADERLKIFRCLTVLTEPLCQVALPNPDPGRALFCEIFLYLTRPKALRLPPNTFFALFFFNRERRYCAIVHLRSVTHPLTPLLCTLTFARIRAATPPEETPDPTTEQLAEEPVVGELDGAYLVPAKTPPEPGACCALGPGAWWHLPSGQIYCWAMDSDLGSLCPPGSRARHLGWLLARITNHPGGCESCAPPPHIDSANALWLSSVVTESCPCVAPCLWAKMAQCTLAVQGDASLCPLLFGHPVDTVTLLQAPRRPCITDRLQEVVGGRCGADNIPPTSAGWRLCVFSSYISRLFATSCPTVARAVARASSSDPE
amount of UL16 on ΔUL37 capsids relative to WT: 42%

From publication PMC2824050
